From PMC7846742

Target: His6-OAZ-GSY-SPM-Ctag (human | Neisseria meningitidis serogroup B (strain MC58)) (UniProt Q9JYV5)
Assay: cross-linking; NeissLock: Ca2+-induced aspartic anhydride on OAZ reacts with the docked partner; purified proteins mixed at 10 µM each or as indicated (AZI 2.5 µM each; Fig. 4b 0.5 µM each; 30 µM ODC with 10 µM OAZ-Y-SPM), 37 °C, HBS pH 7.4 with 2 mM TCEP, 10 mM CaCl2 unless varied (pH 6.5-8.5, 0.5-10 mM Ca2+, TBS, lyophilised probe); SDS-PAGE with Coomassie, intact ESI-MS, tryptic LC-MS/MS

Sequence of His6-AZI-Ctag (human Antizyme Inhibitor) (O14977 whole entry): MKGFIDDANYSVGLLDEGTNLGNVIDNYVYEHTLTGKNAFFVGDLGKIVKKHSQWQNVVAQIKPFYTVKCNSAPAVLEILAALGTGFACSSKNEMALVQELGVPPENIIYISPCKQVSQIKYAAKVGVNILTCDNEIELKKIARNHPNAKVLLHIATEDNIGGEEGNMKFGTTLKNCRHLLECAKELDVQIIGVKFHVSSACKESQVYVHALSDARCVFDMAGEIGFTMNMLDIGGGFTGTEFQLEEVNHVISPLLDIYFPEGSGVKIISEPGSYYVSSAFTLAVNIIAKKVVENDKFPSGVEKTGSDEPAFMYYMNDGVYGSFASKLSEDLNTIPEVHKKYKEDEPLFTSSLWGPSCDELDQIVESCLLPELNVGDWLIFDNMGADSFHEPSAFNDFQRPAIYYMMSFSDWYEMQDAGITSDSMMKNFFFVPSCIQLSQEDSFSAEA

His6-AZI-Ctag (human Antizyme Inhibitor) (from UniProt O14977 1-448) (natural protein)
coupling yield: 80% | percent of AZI conjugated within 10 min: > 50%
